# Measurements as given in patent publication US20250109209A1 (ABSCI, published 2025).
# Where a chain is given by its changes, count along the chain named.
# T1: human TL1A (human, UniProt O95150 72-251)
# T1 construct: Antigen in SPR and ELISA; Also used here for places that print only 'TL1A' and for endogenous TL1A in human whole blood; also called TNFSF15
# T1 sequence (looked up): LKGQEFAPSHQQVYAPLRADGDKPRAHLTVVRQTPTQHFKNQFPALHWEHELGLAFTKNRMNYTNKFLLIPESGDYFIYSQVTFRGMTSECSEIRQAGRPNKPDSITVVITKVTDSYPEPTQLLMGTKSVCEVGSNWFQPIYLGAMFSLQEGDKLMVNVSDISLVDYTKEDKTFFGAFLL
# T2: mouse TL1A (mouse, UniProt Q5UBV8 76-252, limits assumed)
# T2 sequence (looked up): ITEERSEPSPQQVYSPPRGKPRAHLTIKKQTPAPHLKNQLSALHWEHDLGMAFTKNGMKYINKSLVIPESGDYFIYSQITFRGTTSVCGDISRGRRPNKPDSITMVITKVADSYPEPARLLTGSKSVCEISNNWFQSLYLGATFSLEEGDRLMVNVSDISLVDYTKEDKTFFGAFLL
# T3: Cyno TL1A (cyno, UniProt G7PRK8 72-251)
# T3 sequence: T1 sequence (looked up) with F39L, I78V
# B1: Antibody 16 (mAb format) (antibody, human IgG1, kappa, N297A)
# heavy: QVQLQESGPGLVRPSQTLSLTCTVSGFDMQSTYMHWVRQRPGRGLEWMGRIEPAGGHTKYNPSLKSRVTITRDTSKNQVSLRLSSVTAADTAVYYCVRSGGLPDVWGQGSLVTVSSASTKGPSVFPLAPSSKSTSGGTAALGCLVKDYFPEPVTVSWNSGALTSGVHTFPAVLQSSGLYSLSSVVTVPSSSLGTQTYICNVNHKPSNTKVDKKVEPKSCDKTHTCPPCPAPELLGGPSVFLFPPKPKDTLMISRTPEVTCVVVDVSHEDPEVKFNWYVDGVEVHNAKTKPREEQYASTYRVVSVLTVLHQDWLNGKEYKCKVSNKALPAPIEKTISKAKGQPREPQVYTLPPSRDELTKNQVSLTCLVKGFYPSDIAVEWESNGQPENNYKTTPPVLDSDGSFFLYSKLTVDKSRWQQGNVFSCSVLHEALHSHYTQKSLSLSPGK
# light: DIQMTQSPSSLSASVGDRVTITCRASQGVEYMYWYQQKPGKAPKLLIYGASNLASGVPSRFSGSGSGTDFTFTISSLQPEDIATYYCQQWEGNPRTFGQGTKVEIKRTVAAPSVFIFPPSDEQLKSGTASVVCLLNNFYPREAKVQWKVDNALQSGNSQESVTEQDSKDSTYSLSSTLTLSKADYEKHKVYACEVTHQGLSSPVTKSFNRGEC
# notes: also called high priority lead mAb
# B2: Antibody 1 (mAb format) (antibody, human IgG1, kappa, N297A)
# heavy: B1 heavy with M29I, S31D, V97A, R98S, L102M, V105L
# light: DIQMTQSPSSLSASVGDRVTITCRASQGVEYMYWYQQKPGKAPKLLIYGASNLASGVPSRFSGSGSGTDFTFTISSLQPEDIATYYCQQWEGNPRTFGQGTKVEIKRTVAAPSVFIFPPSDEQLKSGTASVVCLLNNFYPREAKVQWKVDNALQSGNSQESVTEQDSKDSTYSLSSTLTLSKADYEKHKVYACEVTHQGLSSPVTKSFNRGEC
# notes: also called Lead #1; high priority lead mAb
# B3: Antibody 2 (mAb format) (antibody, human IgG1, kappa, N297A)
# heavy: B1 heavy with F27L, M29P, Q30D, S31D, R98I
# light: DIQMTQSPSSLSASVGDRVTITCRASSSVSYMYWYQQKPGKAPKLLIYATSNLASGVPSRFSGSGSGTDFTFTISSLQPEDIATYYCQQWEGNPRTFGQGTKVEIKRTVAAPSVFIFPPSDEQLKSGTASVVCLLNNFYPREAKVQWKVDNALQSGNSQESVTEQDSKDSTYSLSSTLTLSKADYEKHKVYACEVTHQGLSSPVTKSFNRGEC
# notes: as for B1
# B4: Antibody 4 (mAb format) (antibody, human IgG1, kappa, N297A)
# heavy: B1 heavy with Q30A, S31D, V105M
# light: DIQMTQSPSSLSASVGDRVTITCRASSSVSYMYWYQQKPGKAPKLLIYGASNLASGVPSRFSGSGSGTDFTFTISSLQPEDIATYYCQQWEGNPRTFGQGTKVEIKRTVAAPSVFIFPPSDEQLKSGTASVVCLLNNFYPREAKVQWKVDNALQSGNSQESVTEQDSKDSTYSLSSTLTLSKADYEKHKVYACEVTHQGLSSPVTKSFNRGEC
# notes: as for B1
# B5: Antibody 5 (mAb format) (antibody, human IgG1, kappa, N297A)
# heavy: B1 heavy with S31D, G55S
# light: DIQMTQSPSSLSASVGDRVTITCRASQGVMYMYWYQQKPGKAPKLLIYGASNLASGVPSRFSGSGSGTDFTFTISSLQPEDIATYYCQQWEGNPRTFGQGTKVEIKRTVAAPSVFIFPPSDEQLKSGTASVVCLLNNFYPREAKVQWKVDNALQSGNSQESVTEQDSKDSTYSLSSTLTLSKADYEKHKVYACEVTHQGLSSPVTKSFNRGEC
# notes: as for B1
# B6: Antibody 6 (mAb format) (antibody, human IgG1, kappa, N297A)
# heavy: B1 heavy with Q30A, S31D, V105M
# light: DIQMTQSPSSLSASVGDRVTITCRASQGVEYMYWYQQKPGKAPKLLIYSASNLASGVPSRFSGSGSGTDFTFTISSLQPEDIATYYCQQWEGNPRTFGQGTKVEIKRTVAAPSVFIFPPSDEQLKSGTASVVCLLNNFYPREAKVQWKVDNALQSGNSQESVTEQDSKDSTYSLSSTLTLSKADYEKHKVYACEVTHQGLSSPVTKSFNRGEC
# notes: as for B1
# B7: Antibody 7 (mAb format) (antibody, human IgG1, kappa, N297A)
# heavy: B1 heavy with Q30G, S31D, G55A, V105I
# light: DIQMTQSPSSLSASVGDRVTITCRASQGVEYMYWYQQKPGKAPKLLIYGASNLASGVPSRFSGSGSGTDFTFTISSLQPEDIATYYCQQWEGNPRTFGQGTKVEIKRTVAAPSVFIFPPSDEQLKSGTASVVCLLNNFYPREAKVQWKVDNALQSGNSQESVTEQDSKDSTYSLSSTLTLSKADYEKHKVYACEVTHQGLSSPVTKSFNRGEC
# notes: as for B1
# B8: Antibody 8 (mAb format) (antibody, human IgG1, kappa, N297A)
# heavy: B1 heavy
# light: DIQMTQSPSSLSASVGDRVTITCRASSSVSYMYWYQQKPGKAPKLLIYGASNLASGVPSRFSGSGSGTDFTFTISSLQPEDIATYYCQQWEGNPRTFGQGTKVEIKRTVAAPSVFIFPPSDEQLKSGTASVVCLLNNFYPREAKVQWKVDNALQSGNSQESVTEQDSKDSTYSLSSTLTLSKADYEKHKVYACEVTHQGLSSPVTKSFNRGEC
# notes: as for B1
# B9: Antibody 9 (mAb format) (antibody, human IgG1, kappa, N297A)
# heavy: B1 heavy with M29I, S31D, V105A
# light: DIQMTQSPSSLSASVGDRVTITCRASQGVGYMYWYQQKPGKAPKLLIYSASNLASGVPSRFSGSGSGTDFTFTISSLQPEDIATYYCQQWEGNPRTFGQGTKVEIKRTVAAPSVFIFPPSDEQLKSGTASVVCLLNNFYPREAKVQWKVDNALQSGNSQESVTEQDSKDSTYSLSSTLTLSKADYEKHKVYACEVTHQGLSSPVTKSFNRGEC
# notes: as for B1
# B10: Antibody 10 (mAb format) (antibody, human IgG1, kappa, N297A)
# heavy: B1 heavy with F27L, M29P, Q30D, S31D, R98I
# light: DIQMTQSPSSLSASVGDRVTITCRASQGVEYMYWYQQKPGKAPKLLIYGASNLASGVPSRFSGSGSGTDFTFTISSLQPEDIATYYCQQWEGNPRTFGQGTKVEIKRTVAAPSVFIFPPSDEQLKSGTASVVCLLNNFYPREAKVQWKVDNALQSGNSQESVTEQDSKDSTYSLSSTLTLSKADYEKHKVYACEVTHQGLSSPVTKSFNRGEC
# notes: as for B1
# B11: Antibody 11 (mAb format) (antibody, human IgG1, kappa, N297A)
# heavy: B1 heavy with Q30G, S31D, L102M
# light: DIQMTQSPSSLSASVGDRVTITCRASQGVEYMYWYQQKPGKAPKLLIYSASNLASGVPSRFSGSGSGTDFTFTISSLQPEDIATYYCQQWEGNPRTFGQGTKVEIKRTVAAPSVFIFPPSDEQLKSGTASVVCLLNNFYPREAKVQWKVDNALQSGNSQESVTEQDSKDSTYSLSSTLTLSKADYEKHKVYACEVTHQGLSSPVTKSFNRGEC
# notes: as for B1
# B12: Antibody 12 (mAb format) (antibody, human IgG1, kappa, N297A)
# heavy: B1 heavy with M29I, Q30T, S31D
# light: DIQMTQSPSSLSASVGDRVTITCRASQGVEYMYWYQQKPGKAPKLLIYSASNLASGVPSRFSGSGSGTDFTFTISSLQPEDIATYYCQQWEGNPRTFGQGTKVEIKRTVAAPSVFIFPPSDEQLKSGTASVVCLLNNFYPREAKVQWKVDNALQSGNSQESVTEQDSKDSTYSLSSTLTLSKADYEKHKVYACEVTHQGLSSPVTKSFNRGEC
# notes: as for B1
# B13: Antibody 13 (mAb format) (antibody, human IgG1, kappa, N297A)
# heavy: B1 heavy with M29Y, S31D, E52D, G55S, V97A, R98V, L102M
# light: B3 light with S27Q, S28G, S30E
# notes: as for B1
# B14: Antibody 14 (mAb format) (antibody, human IgG1, kappa, N297A)
# heavy: B1 heavy with F27L, M29P, Q30D, S31D, R98I
# light: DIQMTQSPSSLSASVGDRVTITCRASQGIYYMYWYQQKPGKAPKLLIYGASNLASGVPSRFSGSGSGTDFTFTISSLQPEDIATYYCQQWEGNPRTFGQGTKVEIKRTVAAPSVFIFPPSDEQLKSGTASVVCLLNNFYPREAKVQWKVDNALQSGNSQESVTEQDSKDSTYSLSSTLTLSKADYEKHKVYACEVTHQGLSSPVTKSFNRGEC
# notes: as for B1
# B15: Antibody 15 (mAb format) (antibody, human IgG1, kappa, N297A)
# heavy: B1 heavy with M29I, S31D, V105A
# light: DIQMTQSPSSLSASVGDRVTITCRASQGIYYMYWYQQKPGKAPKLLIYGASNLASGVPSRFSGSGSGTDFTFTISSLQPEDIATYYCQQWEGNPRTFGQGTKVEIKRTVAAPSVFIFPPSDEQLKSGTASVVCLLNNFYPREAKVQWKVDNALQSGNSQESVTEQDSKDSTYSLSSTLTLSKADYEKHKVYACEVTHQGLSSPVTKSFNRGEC
# notes: as for B1
# B16: Antibody 17 (mAb format) (antibody, human IgG1, kappa, N297A)
# heavy: B1 heavy with Q30G, S31D, G55A
# light: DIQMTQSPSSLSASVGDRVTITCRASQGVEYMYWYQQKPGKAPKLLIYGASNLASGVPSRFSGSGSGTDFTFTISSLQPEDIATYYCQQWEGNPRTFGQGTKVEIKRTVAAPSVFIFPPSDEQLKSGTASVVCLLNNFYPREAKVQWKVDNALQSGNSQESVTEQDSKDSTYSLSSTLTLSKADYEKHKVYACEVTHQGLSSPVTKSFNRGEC
# notes: as for B1
# B17: Antibody 18 (mAb format) (antibody, human IgG1, kappa, N297A)
# heavy: B1 heavy with Q30G, S31D, L102M
# light: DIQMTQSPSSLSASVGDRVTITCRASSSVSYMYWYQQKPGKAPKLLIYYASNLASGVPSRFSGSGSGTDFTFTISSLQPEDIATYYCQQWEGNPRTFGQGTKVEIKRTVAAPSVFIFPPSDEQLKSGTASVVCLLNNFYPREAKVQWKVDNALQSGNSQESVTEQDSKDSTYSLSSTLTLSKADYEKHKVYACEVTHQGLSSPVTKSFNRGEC
# notes: as for B1
# B18: Antibody 19 (mAb format) (antibody, human IgG1, kappa, N297A)
# heavy: B1 heavy with M29I, Q30T, S31D
# light: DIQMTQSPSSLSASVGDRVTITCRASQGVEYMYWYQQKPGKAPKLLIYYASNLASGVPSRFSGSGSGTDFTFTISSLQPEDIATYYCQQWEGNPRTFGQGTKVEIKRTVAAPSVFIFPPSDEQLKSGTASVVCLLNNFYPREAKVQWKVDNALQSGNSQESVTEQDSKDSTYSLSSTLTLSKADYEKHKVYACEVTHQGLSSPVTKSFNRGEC
# notes: as for B1
# B19: Antibody 20 (mAb format) (antibody, human IgG1, kappa, N297A)
# heavy: B1 heavy with M29I, S31D, G55S, V97A, L102M, V105M
# light: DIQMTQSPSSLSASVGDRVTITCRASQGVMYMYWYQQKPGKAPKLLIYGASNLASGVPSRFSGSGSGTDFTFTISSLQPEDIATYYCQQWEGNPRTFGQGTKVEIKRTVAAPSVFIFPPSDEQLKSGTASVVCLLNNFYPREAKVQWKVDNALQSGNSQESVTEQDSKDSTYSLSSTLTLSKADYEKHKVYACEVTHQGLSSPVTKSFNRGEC
# notes: as for B1
# B20: RVT-3101 (antibody, V domains shown)
# VH: QVQLVQSGAEVKKPGASVKVSCKASGYDFTYYGISWVRQAPGQGLEWMGWISTYNGNTHYARMLQGRVTMTTDTSTRTAYMELRSLRSDDTAVYYCARENYYGSGAYRGGMDVWGQGTTVTVSS
# VL: EIVLTQSPATLSLSPGERATLSCRASQSVSSYLAWYQQKPGQAPRLLIYDASNRATGIPARFSGSGSGTDFTLTISSLEPEDFAVYYCQQRSNWPWTFGQGTKVEIK
# B21: TEV-48574 (antibody, V domains shown)
# VH: QVQLVQSGAEVKKPGASVKVSCKASGYTFTSYDINWVRQAPGQGLEWMGWLNPNSGYTGYAQKFQGRVTMTADRSTSTAYMELSSLRSEDTAVYYCAREVPETAAFEYWGQGTLVTVSS
# VL: QSVLTQPPSVSGAPGQRVTISCTSSSSDIGAGLGVHWYQQLPGTAPKLLIEGYYNRPSGVPDRFSGSKSGTSASLTITGLLPEDEGDYYCQSWDGTLSALFGGGTKLTVLR
# B22: Heron2B-Toci (Fab, V domains shown)
# VH: QVQLQESGPGLVRPSQTLSLTCTVSGFDIQDTYMHWVRQRPGRGLEWMGRIDPASGHTKYNPSLKSRVTITRDTSKNQVSLRLSSVTAADTAVYYCARSGGLPDVWGQGSLVTVSS
# VL: DIQMTQSPSSLSASVGDRVTITCRASSSVSYMYWYQQKPGKAPKLLIYATSNLASGVPSRFSGSGSGTDFTFTISSLQPEDIATYYCQQWEGNPRTFGQGTKVEIK
# notes: also called Heron2B-toci parent
# Molecular target: T4, FcRn (UniProt P55899 24-297; P61769 21-119)
# T4 construct: also called neonatal receptor
# T4 sequence (P55899 24-297 limits assumed, chain 1 of 2): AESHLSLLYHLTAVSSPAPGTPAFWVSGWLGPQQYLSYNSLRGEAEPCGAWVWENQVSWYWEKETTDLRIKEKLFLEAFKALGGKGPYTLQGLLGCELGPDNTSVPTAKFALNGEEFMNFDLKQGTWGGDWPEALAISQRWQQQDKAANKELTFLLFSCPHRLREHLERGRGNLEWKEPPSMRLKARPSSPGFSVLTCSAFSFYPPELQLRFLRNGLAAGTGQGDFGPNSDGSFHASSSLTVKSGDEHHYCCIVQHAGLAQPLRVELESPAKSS
# T4 sequence (P61769 21-119 limits assumed, chain 2 of 2): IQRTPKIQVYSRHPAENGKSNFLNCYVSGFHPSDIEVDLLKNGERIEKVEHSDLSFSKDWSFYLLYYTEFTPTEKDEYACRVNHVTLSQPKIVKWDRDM
# Experiment: SPR, mAb format, FcRn at pH 6.0, average
row,Binder,Kd [nM]
1,B1,17.7
2,B2,17.5
3,B3,17.1
4,B4,16.9
5,B5,17.2
6,B6,20.9
7,B7,19
8,B8,17.6
9,B9,18.2
10,B10,22.1
11,B11,20.4
12,B12,19.7
13,B13,18.8
14,B14,19.8
15,B15,17.4
16,B16,17.4
17,B17,16.2
18,B18,16.5
19,B19,16.4

# Molecular target: T1, human TL1A
# Experiment: selectivity ELISA: antibody pre-incubated with TL1A, inhibition of TL1A binding to plate-coated DcR3
row,Binder,IC50 [µg/mL]
1,B20,0.8
2,B21,0.7

# Molecular target: T1, human TL1A
# Experiment: SPR, affinity capture of Fab, average
row,Binder,Kd [nM]
1,B22,5.71

# Molecular target: T1, human TL1A
# Experiment: selectivity ELISA: antibody pre-incubated with TL1A, inhibition of TL1A binding to plate-coated DR3
row,Binder,IC50 [µg/mL]
1,B20,4.4
2,B21,2.6

# Molecular target: T2, mouse TL1A
# Experiment: SPR, mAb format
row,Binder,binding result
1,B3,no binding
2,B10,no binding
3,B13,no binding

# Molecular target: T1, human TL1A
# Experiment: SPR, mAb format, average
row,Binder,Kd [nM]
1,B1,0.339
2,B2,0.151
3,B3,0.195
4,B4,0.051
5,B5,0.073
6,B6,0.101
7,B7,0.179
8,B8,0.091
9,B9,0.096
10,B10,0.482
11,B11,0.2
12,B12,0.17
13,B13,0.385
14,B14,0.296
15,B15,0.067
16,B16,0.172
17,B17,0.252
18,B18,0.38
19,B19,0.079

# Molecular target: T1, human TL1A
# Experiment: SPR, mAb format, average
# Remark: another data set of the same source
row,Binder,Kd [nM]
1,B1,0.339
2,B2,0.151
3,B3,0.195
4,B4,0.051
5,B5,0.073
6,B6,0.101
7,B7,0.179
8,B8,0.091
9,B9,0.096
10,B10,0.482
11,B11,0.2
12,B12,0.17
13,B13,0.385
14,B14,0.296
15,B15,0.067
16,B16,0.172
17,B17,0.252
18,B18,0.38
19,B19,0.079

# Molecular target: T1, human TL1A
# Experiment: SPR, mAb format, average
# Remark: another data set of the same source
row,Binder,Kd [nM]
1,B1,0.339
2,B2,0.151
3,B3,0.195
4,B4,0.051
5,B5,0.073
6,B6,0.101
7,B7,0.179
8,B8,0.091
9,B9,0.096
10,B10,0.482
11,B11,0.2
12,B12,0.17
13,B13,0.385
14,B14,0.296
15,B15,0.067
16,B16,0.172
17,B17,0.252
18,B18,0.38
19,B19,0.079

# Molecular target: T2, mouse TL1A
# Experiment: SPR, mAb format, average
row,Binder,Kd [nM]
1,B1,955
2,B2,74500
3,B4,290
4,B5,727
5,B6,1720
6,B7,1270
7,B8,418
8,B9,739
9,B11,842
10,B12,13100
11,B14,3810
12,B15,162
13,B16,452
14,B17,397
15,B18,691
16,B19,391

# Molecular target: T3, Cyno TL1A
# Experiment: SPR, mAb format, average
row,Binder,Kd [nM]
1,B1,0.09
2,B2,0.139
3,B3,0.408
4,B4,0.034
5,B5,0.038
6,B6,0.085
7,B7,0.125
8,B8,0.085
9,B9,0.064
10,B10,0.253
11,B11,0.135
12,B12,0.118
13,B13,0.154
14,B14,0.224
15,B15,0.046
16,B16,0.099
17,B17,0.087
18,B18,0.123
19,B19,0.046
